Test results published in the nanobody polyreactivity screen of Harvey et al. (2022).

Assay: yeast display, Sf9 membrane polyspecificity reagent, FACS + sequencing; frameworks hold sequencing errors
How it was run: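 Sorting gates, low and high (top ~1%), were placed on anti-HA fluorescence to track expression and on streptavidin fluorescence to track reagent binding. A clone's polyreactivity label is taken from the gate it came out of. The reagent was 10% biotinylated, detergent-solubilized Sf9 membrane, applied for 1 hour at 4 °C to galactose-induced yeast display cells.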

Sequence	polyreactivity (PSR sort gate)
QVQLVESGGGLVQAGGSLRLSCAASGGIFTGYAMGWYRQAPGKERELVASITISGGRTYYADSVKGRFTISRDNAKNTVYLQINSLKPEDTAVYYCAATIPWYKYRYYYWGQGTQVTVSS	high polyreactivity
QVQLVESRGVLVQAGGSLRLSCAASGSTFTGYAMGWYRQAPGKERELVAGITGSGGSTYYADSVMGRFTISRDNAKITVYFQMNSLKPVDTAVYYCAAACWYHYVWLDYFWGQGTQVTVSS	low polyreactivity
QVQLVESGGGLVQAGGSLRLSCAASGITFEYYDMGWYRQAPGKERELVAAISWSTDITYADSVKGRFTISRDNAKNTVYLQLNSLKPEDTAVYYCAALGGLSDFWHLYDYWGQGTQVTVSS	low polyreactivity
QVQLVESGGGLVQAGGSLRLSCAASGLTFRYYAMGWYRQAPGKERELVAAITASVGSTYYADSVKGRFTISRDNAKNTVYLQMNSLKPEDTAVYYCAAEGTPGPGGGYYWGQGTQVTVSS	low polyreactivity
QEQLVESGGGLVQAGGSLGLSCAASGLTFSYYAMRWYRQAPGKERELVAAIDYSGGTTYADSVKGRFTISRDNAKNTVYLQMNSLKPEDTAVYYCAAAPDGWFASGDEYWGQGTQVTVSS	high polyreactivity
QVQLVESGGGLVQAGGSLRLSCAASGRIFSYMGWYRQAPGKERELVASISWSGGSTYYADSVKGRFTISRDNAKNTVYLQMNSLKPEDTAVYYCAAYLRSYVRYYYWGQGTQVTVSS	high polyreactivity
QVQLVESGGGLVQAGGSLRLSCAASGRTFSGNAMGWYRQAPGKERELVAAITSGSSTYYADSVKGRFTISRDNAKNTVYLQMNSLKPEDTAVYYCAARSVYGSSFLSYGYWGQGTQVTVSS	high polyreactivity
QVQLVESGGGLVQAGGSLRLSCAASGFIFWWYNMGWYRQAPGKERELVAAISGSGGSTYYADSVKGRFTISRDNAKNTVYLQMNSLKPEHTAVYYCAALFGTGQFYYRYDYWGQGTQVTVSS	high polyreactivity
QDQHVESGGGLVQAGGSLRLSCAASGGIFQSYTMGRYRQAPGKEREFVAAITYSGGSTHYADSVKGRFTISRDKAKNTVYLQMNSLKPEDTAVYYCNADRYYGRGYGYWGQGTQVTVSS	low polyreactivity
QVQLVESGGGLVQAGGSLRLSCAASGSTFDVNAMGSYRQAPGKERELVAAISWNSGSTYFADSVKGRFTISRDNAKNTVYLQMNRLKPEDTAVYYCAATYGTGRRSKYGYWGQGTQVTVSS	high polyreactivity
QVQLVESGGGLVQAGGSLRLSCAASGRIFQYNAMGWYRQATGKERELVAAITWSSGSTYYADSVKGRFTISRDNAKNTVYLQMNSLKPEDTAVYYCNTVRVLYYDRQFLFRGSRFGYWGQGTQVTVSS	high polyreactivity
QDQLVESGGALVQAGGSLLLSCAASGITFGDHAMGWYRQAPGKEWELFAAISWSGDRTFYADSVTGRFTISRDNAKNTVSLQMNSLNPADTAVYYCNAEIGWHNEGRLSTYDYWGQGTQVTVSS	low polyreactivity
QVQLVESGGGLGQAGGSLRLSCAASGRTFFRYAMGWYRQAPGKERELVAAISSRGGSTYYADSVKGRFTISRDNAKNTVYLQMNSLKPEDTAVYYCNAAAFINFILYDYWGQGTQVTVSS	high polyreactivity
QVQLVESGGGLVQAGGSLRLSCPASGSTIPLYAMGWYRPAPGKERELVAAISRRGGRTYYADSVKGRFTISRDNAKNSVYLQMNSLKPEDTAVYYCATAQGSRVDYWGQGTQVTVSS	high polyreactivity
QVQLVESGGGLVQAGGSLRLSCAASGRIFNAYAMGWYRQAPGKERELVATITGSGGRTHYADSVKGRFTISRDNAKNTVYLQMNSLKPEDTAVYYCAATAQYYHYHLAKYDYWGQGTQVTVSS	low polyreactivity
QVQLQESGGGLVQAGGRLRLSCAASGNIFEADIMGWYNKAQGKERELVASITDGGSTNYADSVKGRFTINRYNAKNNVYLQMNSLKPEDTAVYYCAAIAYPDIPTYFDYDSDYFYWGQGTQVTVSS	high polyreactivity
QVQLVESGGGLVQAGGSLRLSCAASGSIFNGYAMGWYRQAPGKERELVAAISRRGGSTYYADSVKGRFTISRVNAKNTVYLQMISLKPEDTAVYYCAADPRRPLSPQLSDYWGQGTQVTVSS	high polyreactivity
QVQIVESGGVLDHAGGSLRLSCAATVGTSIPNAMGWYRQAPGKERELVAAITRSGGRTYYADSVKGRFTISRDNATNTVYLQMNSLKREDTAVYYCAARVRTTSVRGRYDYWGQGTQVTVSS	high polyreactivity
QVQLVESGGGLVQAGGSLRLSCAASGSTLDTNAMGWYRQAPGKERELVAVIDSGGTTNYADSVKGRFTISRDNAKNTVYLQMNSLKPEDTAVYYCAADYAYFGYWFEGYDYWGQGTQVTVSS	low polyreactivity
QVQLVESGGGLVQAGGSLRLSCAASGSTFTGYDMGWYRQAPGKERELVAAISISGGRTFYADSVKGRFTISRDNAKNTVYLQMNSLKPEDTAVYYCAAYQRGSKYSFDYWGQGTQVTVSS	high polyreactivity
QVQLVESGGGLVQAGGSLRLSCAASGSIFRYYAMGWYRQAPGKETEFGADISASGGSTYYADSVKGRFTISRDNAQNTVYLQMNSLKPEDNAVYYWAARYSYRRPGGYQLGSWGQGTQVTVSS	high polyreactivity
QVQLVESGGGLVQAGGSLRLSCAASGRTFKYYAMGWYRQAPGKERELVATITWSGTSTNYADSVKGRFTISRDTANNSVYLQMNSLKPEDTAVYYCAARSKRRNYDYWGQGTQVTVSS	high polyreactivity

Sequence	polyreactivity (PSR sort gate)
QVQLVESGGGLVQAGGSLRLSCAASGRIFGPYTMGWYRQAPGKERELVAAIRSSGTSTYYADSVKGRFTISRDNAKNTVYLQMNSLKPEDTAVYYCNRARSSSRYDYWGQGTQVTVSS	low polyreactivity
QVQLVESGGGLVQAGGSLRLSCAASGSTFCYYDMGWYRQAPGKERELVATISSGGGTNYAASVKGRFTISRDNAKNTVYLQMNSLKPEDTAVYYCAAQYVIRITFYATYWEDYWGQGTQVTVSS	low polyreactivity
QVQLVESGGGLVQAGGSLRLSCAASGSTFGPYAMGWYRQAPGKERELVATINSSGSTNYADSVKGRFTISRDNAKNTVYLQMNSLKPEDTAVYYCATLHYYYWYDYWGQGTQVTVSS	low polyreactivity
HVQLVESVGGLVQAGGSLRLRCAASGLTFRCNGMGWYRQEPGKETELVAAISSSGGSTYYADSVKGRFTISRDNAKNTVYLQLNSLKPEDTGVYFCARLVFYSQGVREMDYWGQGTQVTGSS	high polyreactivity
QVQLQESGGGLVQAGGSLRLSCAASGSISRLDYMGWYRQASGKERELVAAIDNGSTTYYADSVKGRLTISRDNAKYTVYLQMNSLKTEDTAVYFCAAVRGRGGTHAYWGQGTQVTVSG	low polyreactivity
QVQLVESGGGLVQAGGSLRLSCAASGITFAPYAMGWYRQAPGKERELVAVISSGGSTKYADSVKGRFTISRDNAKNTVYLQMNSLKPEDTAVYYCAASAPRGYGYKYYYWGQGTQVTVSS	high polyreactivity
QVQLVESGGGLDQAGGSLRLSCAASGRTIRYYTMGWYRQAPGTERELVATIRRGGTTYYADSVKGRFTISRDNAKNTVYLQMNSLKPEDTAVYYCAKESLYQYDYWGQGTQVTVSS	low polyreactivity
QVQLVESGGGLVQAGGSLRLSCASSGSIFNTYTMGWYRQAPGKDRELVAAISSGGSTYYADSVKGRFTISRDNAKKTVYLQMNSLKPEDTAVYYCAAYGHSFQIYDYWGQGTHVTVSS	low polyreactivity
QVQLVETGGGLVQAGGSLRLSCAASGRTIGFYAMGWYRQAPGKERELVAAINRSGDSTYYADSVKGRFTISRDNAKNTVYLHMNSLKPEDTAVYYCAARRSTGYGYWGQGTQVTVSS	high polyreactivity
QVQLVESGGGLVQAGGSLRLSCAASGFTFRRYALGWYRQAPGKERELVAGITGRGGSTYYADSVKGRFTISRDNAKNTVYLQMNSLKPEDTAVYYCNKPRAARGYMTGQLDYWGQGTQVTVSS	high polyreactivity
QVQLVETGGGLVQAGGSLRLSCAASGSTFGGYAMGWYRQAPGKERELVATITGGGSTNYADSVKGRFTISRDNAKNTVYLQMNSLKPEDSAVYYCAKVRTGQSRSVGYDYWGQGTQVTVSS	low polyreactivity
QVQLVESGGGLVQEGGSLRLSCAASGRTFAVYAMGWYRQAPGKERELVAAITYGGGRTYYADSVKGRFTISRDNAKNTVYLQMNSLKPEDTAVYYCAADYYGTDYDYWGQGTQVTVSS	low polyreactivity
QVKLKESVGGLVQAGGSLRLSCAASGSISATGHMGWYRQAPGEERELVAAINFGSNTYYADSVKGLFTISRDNAINTVYLQKSGLKPEDTAVYYWAVDGWYVGPYYYWGQGTQVTVSS	high polyreactivity
QVQLVESGGGIVQAGGSLRLSCAASGSTFNDNAMGWYRQAPGNERELVAAITGGGGRTYYADSVKGRFTISRDNAKNTVYLQMNSLKPEATAVYYCNRGATFEYWGHGTQVTVSS	low polyreactivity
QVQLVESGGGLVQAGGSLRLSFAASGITFASNTMGWYRQAPGKERELVAAITRGDNTYYADSVKGRFTISRDNAKNTVYLQMKSLKPEDTAVYYCAKDPHGVEPVPDGYDYWGQGTQVTVSS	low polyreactivity
QVQLVESGGGLVQAGGSLRLSCAASGYPFGKYAMGWYRQAPGKERELVASIRSGGSTNYADSVKGRFTISRDNAKNTVYVQMNCLKPEDTAVYYCNTRYRYQYGYDYWWQGTQVTVSS	high polyreactivity
QVQLVESGGGLVQAGGSLRLTCAASGRIFTGYAMGWYRQAPWKERELVAAISRGSSTYADSVKGRFTISRDNAKNTVYLQRNSLKPEDTAVYYCAAKWRAADWWPRTSQYDYWGQGTQVTVSS	high polyreactivity
QVQLVESGRGLVQAGGSLRLSCAASGFTFAPNAMGWYRQAPGKDRELVARIDRAGSTYYADSVKGRFTISRDNAKNTVYLQMNSLKPEDTAVYYCATDYHGQPSPPYQSIKVDYWGQGTQVTVSS	low polyreactivity
QVQLVESGGGLVQAGGSLRLSCAASGFIFGYYAMGWYRPAPGNERELVAAIDWSDGSTYYADSVKGRFTISRDNAKNTVYLQMNSLKPEDTAVYYSAVDTYSQQAGDYEYWGQGTQVTVSS	low polyreactivity
QVQLVESGGGLVQAGGSLRLSCAASGRTFDQYAMGWYTPAPGKARELVADITWSGGTTRYADSVKRRFTISRDNAKNTVYLQMNSLKPEDTAVYYCAVDVTCGYNYWGQGTQVNVSS	low polyreactivity
QVQLVESGGGLVQAGGSLRLSCAASGRIFRSYAMGWYRQAPGKERELVAAINYGGTSTYYADSVKGRFTISRDNAKNTVYLQMNSLKPEDTAVYYCAARRPTSPRRYESRGQGTQVTVSS	high polyreactivity
